# Where two headings read alike, the source gives them in different places.
# T1: protein lysine MTase SET7/9 (Homo sapiens, UniProt Q8WTS6)
# T1 construct: purchased New England Biolabs Inc (Ipswich, Mass.)
# T1 sequence (Q8WTS6 1-366): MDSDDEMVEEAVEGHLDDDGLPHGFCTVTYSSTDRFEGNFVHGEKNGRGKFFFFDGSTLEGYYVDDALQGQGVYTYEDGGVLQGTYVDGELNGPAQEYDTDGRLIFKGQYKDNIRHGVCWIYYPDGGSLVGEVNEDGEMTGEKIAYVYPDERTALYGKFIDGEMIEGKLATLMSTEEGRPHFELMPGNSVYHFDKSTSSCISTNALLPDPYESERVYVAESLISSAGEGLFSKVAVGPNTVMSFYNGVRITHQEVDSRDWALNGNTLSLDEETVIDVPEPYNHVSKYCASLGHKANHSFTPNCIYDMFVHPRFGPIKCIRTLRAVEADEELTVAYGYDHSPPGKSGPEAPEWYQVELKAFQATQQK
# T2: SET7/9 (Homo sapiens, UniProt Q8WTS6)
# T2 construct: purchased New England Biolabs Inc (Ipswich, Mass.)
# T2 sequence (Q8WTS6 1-366): T1 sequence (Q8WTS6 1-366)
# B1: Mpe1-5: SAH biosensor, SEQ ID NO: 39 (nucleic acid)
# chain: ACTTTCGAGGAGCGTTGCAACTCCCTTGTTGAGTAGAGTGTGAGCTCCGTAACTAGTTACATCGCAAGATGTAACTGAATGAAATGGTGAAGGACGGGTCCAGGGAGCCAGGCTCGAAAGTCATCCCCCGATGCAACGGCGCTCACCCGCA
# B2: Nmo1-4: SAH biosensor, SEQ ID NO: 65 (Table 2 prints 64) (nucleic acid)
# chain: CTCGCCGAGGAGCGCTGCAACAGGTTGTTGAGTAGAGTGTGAGCTCCGTAACTAGTTACATCGCAAGATGTAACTGAATGAAATGGTGAAGGACGGGTCCACCTGCCAGGCTCGGCGATTATCGGGACCTTTAAACCAACGGCGCTCGGTTCAG
# B3: Spinach2: fluorophore-binding RNA aptamer, SEQ ID NO: 92 (nucleic acid)
# chain: GATGTAACTGAATGAAATGGTGAAGGACGGGTCCAGTAGGCTGCTTCGGCAGCCTACTTGTTGAGTAGAGTGTGAGCTCCGTAACTAGTTACATC
# modifications: expressed or natural sequence
# Legend:
# [1] = Photophysical properties and fluorescence quantum yields of DFHBI and RNA-DFHBI complexes; type: physicochemical; settings: this work
# Description: The absorbance was measured at 448 nm and the fluorescence emission spectra was measured with 448 nm excitation for three different concentrations of the Acridine Yellow standard. The absolute quantum yield of Acridine Yellow was taken to be 0.47 as reported by Olmsted, Journal of Physical Chemistry 1979, 83, 2581-2584. The refractive index (η) was taken as 1.36 for ethanol and 1.333 for water (E. Hecht, Optics (4th edition), 2001). UV absorbance and fluorescence spectra were recorded on a Shimadzu 2501 Spectrophotometer (Shimadzu) or a Quantamaster Master 4 L-format scanning spectrofluorometer (Photon Technologies International) equipped with an LPS-220B 75-W xenon lamp and power supply, A-1010B lamp housing with integrated igniter, switchable 814 photon counting/analog photomultiplier detection unit, and MD5020 motor driver.
# Quantum yields for DFHBI or RNA-DFHBI complex were determined by measuring the apparent quantum yields (Φsample.app) as a function of increasing total RNA (Ctotal RNA) at a fixed concentration of total DFHBI (CDFHBI). […] The RNA was renatured in buffer at 70° C. for 3 min and cooled to ambient temperature for 5 min prior to addition to the reaction solution. The DFHBI concentration was fixed at 10 or 20 μM in different replicates. The apparent quantum yield is described using the following equation: […]
# Then, the apparent quantum yield is related to the dissociation constant Kd and concentration of DFHBI by the following equation: […]
# Thus, the dissociation constants Kd and the quantum yield (Φsample) of RNA-DFHBI complexes were determined by least squares fitting to the above equation in Graphpad Prism software.
# [2] = literature value (Nawrocki et al.); cited from earlier work
# [3] = target: T1, protein lysine MTase SET7/9; assay: Protein MTase SET7/9 inhibition assay read out with Aeh1-4 biosensor; type: biochemical
# Description: To initiate the enzyme reaction, 5 μL of H3 peptide substrate (N′-[…]-LAGGKKC-C′) (SEQ ID NO:132) was added to 5 μL of 2×enzyme reaction solution containing SET7/9, SAM, and NEB HMT buffer. Generally, final concentrations are 50 μM H3 peptide, 0.1 U/μL SET7/9, 25 μM SAM, and lx NEB HMT buffer (50 mM Tris, pH 9.0, 5 mM MgCl2, and 4 mM DTT). The reaction solution was incubated at 37° C. for 2 hours to allow the enzyme reaction to proceed.
# For the kinetics assay, the reaction conditions are the same as described above except 0.05 U/μL SET7/9 was used, and the enzyme reaction was heat inactivated at different time points. For the inhibition assay, the reaction conditions are the same as described in kinetics assay except varied concentrations of sinefungin was added to the enzyme reaction solution, the reaction solution was incubated at 37° C. for 6 min (see FIG. 16), then heat inactivated by incubation at 65° C. for 15 min. For the inhibition assay shown in FIG. 17, the reaction conditions are the same as described above except 40 μM H3 peptide, 0.1 U/μL SET7/9, 40 μM SAM were used instead.
# To initiate the fluorescent biosensor reaction, 10 μL of the enzyme reaction was added to 90 μL of biosensor reaction solution containing renatured RNA, DFHBI, and buffer. […] In vitro fluorescence assays were conducted as described above.
# [4] = In vitro fluorescence assays of SAH biosensors (turn-on, ligand selectivity); type: biochemical; settings: for fluorescence response to SAH at low magnesium: 3 mM magnesium; for fluorescence in the presence of ATP: 10 mM ATP; for fluorescence turn-on: 37° C., 10 mM Mg^2+
# Description: Other conditions, including temperature, concentrations of MgCl2, DFHBI, ligand or RNA, were varied in different experiments and are indicated in the figures. The RNA was renatured in buffer at 70° C. for 3 min and cooled to ambient temperature for 5 min prior to addition to the reaction solution. DFHBI was added to a solution containing buffer and ligand, and then RNA was added at the end before fluorescence measurement. Binding reactions were performed in 100 μL volumes and were incubated at the indicated temperature in a Corning Costar 3915 96-well black plate until equilibrium was reached, which in some cases takes 30 to 60 minutes. The fluorescence emission was measured using a Molecular Devices SpectraMax Paradigm Multi-Mode detection platform plate reader (Sunnyvale, Calif.) with the following instrument parameters: 448 nm excitation, 506 nm emission.
# [5] = Binding affinity analysis of SAH biosensors
# Description: The SAH concentration (cSAH) was varied, and the fluorescence of the sample with DFHBI but no RNA was subtracted as background to determine relative fluorescence units. The ratio between the fraction of biosensor that is bound by SAH and the total SAH biosensor concentration is given as:
# The dissociation constants Kd were determined by least squares fitting to the following equation in Graphpad Prism software: […]
# [6] = system: E. coli BL21* wild-type and ΔMTAN cells; assay: Live cell detection of SAH accumulation, wild-type versus MTAN knockout, flow cytometry; type: cell-based; settings: E. coli BL21* MTAN knockout strain 2
# Description: A Targetron® Gene Knockout System (Sigma-Aldrich) was used to knock out the MTAN gene from E. coli BL21*, following manufacturer protocols.
# Preparation of cell samples for flow cytometry was carried out by inoculating 2 mL of auto-induction media/Carb (F. Studier, Protein Expression and Purification 2005, 41, 207-234) with E. coli BL21* cells from colonies grown on an LB/Carb culture plate, containing pET31b plasmids encoding RNA aptamers. […] Cells were then grown aerobically overnight to saturation (0D600 varied from 5 to 10) and diluted to OD600˜0.01-0.05 in M9 minimal media (pH ˜6.0) with 100 μM DFHBI-1T. Cellular fluorescence was measured for 30,000 cells using a Life Technologies Attune N×T Acoustic Focusing Cytometer.
# SET7/9 = target: T2, SET7/9; assay: High-throughput screening (HTS) assay of SET7/9 activity and inhibition, Z′ score; type: biochemical; settings: 384-well plate, 16 replicates, 300 μM sinefungin
# Description: For HTS experiments, samples were dispensed into a Grenier 781077 384-well flat bottom black plate using an Eppendorf Repeater […] pipetter to dispense reaction components. Z' scores were calculated from 16 well replicates in the 384-well plate. For the HTS SET7/9 activity assay, 3 μL of H3 peptide or water was added to 9 μL of reaction solution containing SET7/9 MTase, SAM, and NEB HMT Reaction Buffer in each well. Final concentrations are: 0.25 U/10 μL SET7/9, 25 μM SAM, 50 μM H3 peptide and 1×NEB HMT Reaction Buffer (50 mM Tris, pH 9.0, 5 mM MgCl2, and 4 mM DTT). After 30 min incubation at 37° C., to initiate the fluorescent biosensor reaction, 18 μL of biosensor reaction solution containing renatured RNA, DFHBI, and buffer was added to each well. […] In vitro fluorescence assays were conducted as described above. For the HTS SET7/9 inhibition assay, 4.5 μL of sinefungin or water was added to 8 μL of reaction solution containing SET7/9 MTase, and NEB HMT Reaction Buffer in each well. After 15 minutes incubation at 37° C., methylation reaction was initiated by adding 2.5 μL solution containing both SAM and H3 peptide. Final concentrations are: 0.25 U/10 μL SET7/9, 25 μM SAM, 50 μM H3 peptide, 300 μM sinefungin and 1×NEB HMT Reaction Buffer (50 mM Tris, pH 9.0, 5 mM MgCl2, and 4 mM DTT). After 30 min incubation at 37° C., to initiate the fluorescent biosensor reaction, 15 μL of biosensor reaction solution containing renatured RNA, DFHBI, and buffer was added to each well. […] In vitro fluorescence assays were conducted as described above.
# E. coli BL21* cells = assay: In vivo fluorescence of RNA aptamers by flow cytometry; type: cell-based; settings: 100 μM DFHBI
# Description: To compare the fluorescence of Spinach2 and cpSpinach2 in live cells, pET31b plasmids encoding the RNA aptamers in a tRNA scaffold were transformed into E. coli BL21* cells. Following IPTG induction of transcription, cells were incubated with DFHBI and fluorescence was quantitated by flow cytometry. The mean cellular fluorescence was measured as a function of increasing DFHBI concentration in the media, in order to determine the optimal conditions for aptamer fluorescence. Unexpectedly, full saturation of fluorescence was not observed, even when E. coli cells were incubated in media containing up to 800 μM DFHBI (FIG. 5). However, the non-specific fluorescence signal increased when DFHBI concentration exceeded 100 μM. Thus, to balance higher fluorescence activation and lower non-specific background, a concentration of 100 μM was adopted for further experiments. Under these conditions, cellular fluorescence activation for Spinach2 and cpSpinach2 was on average 34 and 22-fold over background, respectively (FIG. 6). Thus, cpSpinach2 is a functional alternative to Spinach2. Although it currently performs slightly poorer in terms of fluorescence activation in live cells, improvements are likely possible through directed mutagenesis for higher thermal stability, improved folding efficiency and less Mg^2+ dependency. […]
# [7] = 3 mM magnesium (FIG. 22), read-out: in vitro measured binding affinity for SAH
molecule,measurement,setting,value
"CC1=N/C(=C\c2cc(F)c(O)c(F)c2)C(=O)N1C [DFHBI, (Z)-4-(3,5-difluoro-4-hydroxybenzylidene)-1,2-dimethyl-1H-imidazol-5(4H)-one]",Emission maximum,[1],502 ± 1 nm
same,Excitation Maximum,[1],428 ± 1 nm
same,Extinction coefficient,[1],30018 M^−1- cm^−1
same,Fluorescence quantum yield,"[1]; 30° C., 10 mM MgCl2",0.00072 ± 0.00013
same,Emission maximum,[2],489 nm
same,Excitation Maximum,[2],423 nm
same,Extinction coefficient,[2],30100 M^−1- cm^−1
same,Fluorescence quantum yield,[2],0.0007
Nc1ncnc2c1ncn2[C@@H]1O[C@H](C[C@@H](N)CC[C@H](N)C(=O)O)[C@@H](O)[C@H]1O [Sinefungin],IC50,[3]; initial SAM concentration 40 μM,42 ± 16 µM
same,IC50,[3]; initial SAM concentration of 25 μM,26 ± 5 µM
B1,fluorescence response to SAM,[4]; 10 μM of SAM,slight response to SAM
same,fluorescence response to SAH at low magnesium,[4],high fluorescence response to SAH
same,fluorescence in the presence of ATP,[4],lower fluorescence
same,fluorescence turn-on,[4],~4 fold
same,Kd,[5]; [7],19 nM
same,Kd,"[5]; 10 mM Mg^2+, 37° C., read-out: Kd for SAH",75 ± 7 nM
same,fold change in fluorescence between wild-type and MTAN knockout strain 2,[6],2.0 ×
B2,fluorescence response to SAH at low magnesium,[4],high fluorescence response to SAH
same,fluorescence turn-on,[4],~9 fold
same,Kd,[5]; [7],750 nM
same,"Z′ score, inhibitor screen",SET7/9,0.75
same,fold change in fluorescence between wild-type and MTAN knockout strain 2,[6],4.8 ×
B3,cellular fluorescence activation over background,E. coli BL21* cells,34 fold
same,fluorescence in the presence of ATP,[4],showed the same effect

# Source: patent publication US20180267027A1, “FLUORESCENT BIOSENSOR FOR […] ASSAY” (The Regents of the University of California, priority 2015, published 2018)
